Assay results reported in paper PMC4761948 (2016).

Target: T1, GST-GCM1 (Homo sapiens (Human), UniProt Q9NP62)
T1 chain: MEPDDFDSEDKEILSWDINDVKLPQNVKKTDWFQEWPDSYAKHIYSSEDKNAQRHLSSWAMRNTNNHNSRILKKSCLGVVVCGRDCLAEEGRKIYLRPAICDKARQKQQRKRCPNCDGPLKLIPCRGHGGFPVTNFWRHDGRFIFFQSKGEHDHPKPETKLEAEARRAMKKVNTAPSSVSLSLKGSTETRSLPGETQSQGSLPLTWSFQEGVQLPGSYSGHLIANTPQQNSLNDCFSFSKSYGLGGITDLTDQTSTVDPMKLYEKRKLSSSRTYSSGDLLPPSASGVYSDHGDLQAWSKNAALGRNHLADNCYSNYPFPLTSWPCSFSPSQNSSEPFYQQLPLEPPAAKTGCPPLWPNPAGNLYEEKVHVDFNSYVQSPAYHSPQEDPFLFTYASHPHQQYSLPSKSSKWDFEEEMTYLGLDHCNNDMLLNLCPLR
Assay: GST pull-down

B1: GATA3-FLAG (protein)
chain: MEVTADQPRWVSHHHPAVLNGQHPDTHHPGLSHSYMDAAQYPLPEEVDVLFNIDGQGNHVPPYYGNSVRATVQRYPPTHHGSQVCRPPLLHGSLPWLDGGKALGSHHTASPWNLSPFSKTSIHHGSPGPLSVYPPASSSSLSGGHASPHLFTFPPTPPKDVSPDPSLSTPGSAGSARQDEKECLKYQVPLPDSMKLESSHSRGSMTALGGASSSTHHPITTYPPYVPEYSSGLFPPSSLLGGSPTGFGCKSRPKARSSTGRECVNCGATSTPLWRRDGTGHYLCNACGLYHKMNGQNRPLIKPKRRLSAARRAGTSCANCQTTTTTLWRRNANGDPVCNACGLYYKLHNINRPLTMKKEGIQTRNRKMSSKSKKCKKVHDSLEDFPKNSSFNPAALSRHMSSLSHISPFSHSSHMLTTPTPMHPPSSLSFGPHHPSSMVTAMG
  binding result: binds
